Results from publication PMC7717172.

Target: inactive Minerva virus protease (norovirus GII.4 NS6 protease, C139A) (norovirus GII.4 (Minerva virus))
Experiment: crystal structure

inactive Minerva virus protease (norovirus GII.4 NS6 protease, C139A) (enzyme)
stoichiometry N: 2
